Substitutions are numbered along the chain they refer to.
T1: Aptx full-length WT (Schizosaccharomyces pombe, UniProt O74859 1-232)
T1 sequence: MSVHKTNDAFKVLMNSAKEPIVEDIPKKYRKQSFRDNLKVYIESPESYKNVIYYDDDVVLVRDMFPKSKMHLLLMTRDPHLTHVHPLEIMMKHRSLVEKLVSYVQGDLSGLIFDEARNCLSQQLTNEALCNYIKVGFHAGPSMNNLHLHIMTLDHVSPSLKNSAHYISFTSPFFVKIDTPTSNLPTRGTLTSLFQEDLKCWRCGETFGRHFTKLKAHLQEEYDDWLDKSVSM

T2: Aptx F65A (Schizosaccharomyces pombe, UniProt O74859 1-232, F65A)
T2 sequence: T1 sequence with F65A

T3: Aptxcat (HIT-Znf catalytic core) (Schizosaccharomyces pombe, UniProt O74859 30-232)
T3 sequence: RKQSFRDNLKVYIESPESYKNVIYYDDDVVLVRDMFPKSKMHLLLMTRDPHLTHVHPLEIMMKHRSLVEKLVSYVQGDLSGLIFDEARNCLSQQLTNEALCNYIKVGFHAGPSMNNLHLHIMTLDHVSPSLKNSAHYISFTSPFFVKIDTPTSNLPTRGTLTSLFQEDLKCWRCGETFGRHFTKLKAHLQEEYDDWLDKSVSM

B1: SSB 39-mer (1-nt gap, 3'- and 5'-phosphates) (dsDNA)
DNA 1: CCGAGCATGAATAACCTGCACCTGCATATTATGACTCTG
DNA 2: CAGAGTCATAATATGCAGG
DNA 3: GCAGGTTATTCATGCTCGG
modifications: 3'-phosphate on S5; 5'-phosphate on S6
B2: 39-mer dsDNA (dsDNA)
DNA 1: CAGAGTCATAATATGCAGGTGCAGGTTATTCATGCTCGG
DNA 2: B1 DNA 1
B3: Crystallized duplex, strands A and C (dsDNA)
DNA 1: CCCTG
DNA 2: TATCGGAATCAGGG
modifications: 5'-OH and 3'-OH on both strands

How the values were obtained:
[1] = molecular target: T1, Aptx full-length WT; experiment: fluorescence polarization
[2] = molecular target: T2, Aptx F65A; experiment: fluorescence polarization
[3] = molecular target: T3, Aptxcat (HIT-Znf catalytic core); experiment: X-ray crystallography

Row | Binder | Kd [1] | Kd [2] | binding result [3]
1 | B1 | 80 nM | 250 nM | 
2 | B2 | 190 nM |  | 
3 | CAGAGTCATAATATGCAGGTGCAGGTTATTCATGCTCGG (ssDNA) [39-mer ssDNA] | 330 nM |  | 
4 | B3 |  |  | binds

Source: publication PMC3210380
